Target: GFP-FLN90 (short 90 kDa isoform of Drosophila filamin/cheerio with an N terminus EGFP tag) (Drosophila)
Assay: proximity ligation; in situ PLA (Duolink) in HEK293T cells co-expressing V5-dPak with GFP-FLN90 or GFP alone; fixed with 4% paraformaldehyde about 40 hr after transfection; mouse anti-V5 and rabbit anti-GFP; GFP+ cells scored as PLA+ if they had more than three puncta

Sequence of GFP-FLN90 (short 90 kDa isoform of Drosophila filamin/cheerio with an N terminus EGFP tag) (Drosophila) (Q9VEN1 whole entry, canonical isoform): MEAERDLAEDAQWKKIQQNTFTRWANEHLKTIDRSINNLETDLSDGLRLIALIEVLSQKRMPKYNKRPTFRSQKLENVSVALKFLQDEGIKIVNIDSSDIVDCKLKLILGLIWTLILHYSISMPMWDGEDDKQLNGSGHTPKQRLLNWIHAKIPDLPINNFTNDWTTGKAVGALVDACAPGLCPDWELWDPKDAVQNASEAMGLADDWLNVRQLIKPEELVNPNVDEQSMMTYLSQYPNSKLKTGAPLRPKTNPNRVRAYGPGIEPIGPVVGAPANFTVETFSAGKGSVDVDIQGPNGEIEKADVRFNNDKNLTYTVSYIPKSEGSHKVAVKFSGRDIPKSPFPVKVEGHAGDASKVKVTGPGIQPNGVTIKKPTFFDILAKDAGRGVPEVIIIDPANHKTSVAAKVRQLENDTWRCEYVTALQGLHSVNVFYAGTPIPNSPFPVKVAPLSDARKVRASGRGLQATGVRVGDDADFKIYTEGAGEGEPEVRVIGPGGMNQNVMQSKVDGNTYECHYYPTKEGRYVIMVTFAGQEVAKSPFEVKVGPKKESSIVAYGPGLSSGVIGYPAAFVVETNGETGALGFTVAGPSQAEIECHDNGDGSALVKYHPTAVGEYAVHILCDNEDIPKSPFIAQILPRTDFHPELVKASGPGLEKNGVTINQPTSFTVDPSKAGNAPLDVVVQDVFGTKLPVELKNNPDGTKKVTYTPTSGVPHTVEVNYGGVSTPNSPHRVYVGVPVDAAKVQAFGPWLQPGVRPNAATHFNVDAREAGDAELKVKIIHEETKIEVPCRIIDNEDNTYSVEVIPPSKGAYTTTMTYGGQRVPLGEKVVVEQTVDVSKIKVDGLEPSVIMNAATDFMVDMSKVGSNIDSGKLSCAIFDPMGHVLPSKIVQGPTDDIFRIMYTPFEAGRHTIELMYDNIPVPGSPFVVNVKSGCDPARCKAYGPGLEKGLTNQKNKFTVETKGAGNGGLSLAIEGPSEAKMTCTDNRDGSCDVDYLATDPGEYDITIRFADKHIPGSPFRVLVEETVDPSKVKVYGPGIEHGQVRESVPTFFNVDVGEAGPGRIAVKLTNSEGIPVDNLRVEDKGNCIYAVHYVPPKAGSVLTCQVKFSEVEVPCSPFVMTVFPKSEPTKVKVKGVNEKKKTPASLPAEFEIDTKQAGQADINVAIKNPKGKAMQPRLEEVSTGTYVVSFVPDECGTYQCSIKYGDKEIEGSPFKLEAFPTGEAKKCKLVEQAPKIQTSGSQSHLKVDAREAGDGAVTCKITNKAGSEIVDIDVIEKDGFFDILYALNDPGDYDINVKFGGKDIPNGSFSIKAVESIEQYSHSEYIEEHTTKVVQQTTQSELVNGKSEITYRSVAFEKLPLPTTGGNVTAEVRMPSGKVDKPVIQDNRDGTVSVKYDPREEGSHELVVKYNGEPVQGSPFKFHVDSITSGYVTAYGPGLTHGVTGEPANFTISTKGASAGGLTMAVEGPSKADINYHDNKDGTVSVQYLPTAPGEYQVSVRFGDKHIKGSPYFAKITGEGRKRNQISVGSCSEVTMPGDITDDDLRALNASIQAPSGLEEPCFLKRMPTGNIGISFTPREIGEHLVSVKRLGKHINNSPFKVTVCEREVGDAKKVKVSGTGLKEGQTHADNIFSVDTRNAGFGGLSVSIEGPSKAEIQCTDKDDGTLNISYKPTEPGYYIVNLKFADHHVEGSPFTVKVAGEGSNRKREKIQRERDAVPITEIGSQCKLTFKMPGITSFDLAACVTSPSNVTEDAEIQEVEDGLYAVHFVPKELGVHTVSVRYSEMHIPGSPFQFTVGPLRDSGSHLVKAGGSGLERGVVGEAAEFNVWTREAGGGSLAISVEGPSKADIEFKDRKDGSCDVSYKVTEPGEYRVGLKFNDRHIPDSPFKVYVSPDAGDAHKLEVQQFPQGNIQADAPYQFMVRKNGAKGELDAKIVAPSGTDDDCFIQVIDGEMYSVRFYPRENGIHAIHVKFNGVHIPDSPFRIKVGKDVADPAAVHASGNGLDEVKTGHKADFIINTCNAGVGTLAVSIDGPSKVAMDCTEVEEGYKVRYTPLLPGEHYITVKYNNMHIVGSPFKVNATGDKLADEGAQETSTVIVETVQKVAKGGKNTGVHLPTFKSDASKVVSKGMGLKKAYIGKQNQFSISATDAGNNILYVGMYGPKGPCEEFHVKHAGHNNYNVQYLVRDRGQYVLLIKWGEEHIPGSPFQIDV

Substance: V5-dPak (Drosophila p21-activated kinase Pak with a V5 tag) (from UniProt Q9VI13 1-704) (enzyme)
- PLA-positive cells among GFP+ cells (of 973 GFP+ cells): 484

— publication PMC5173320
